± gives the half width of the 95% confidence interval.
Test: folding stability dG unfold (combined trypsin and chymotrypsin); higher = more stable
Summary of the method: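 Unfolding free energy was derived, per protease or combined, against a sequence-predicted unfolded-state K50 and a shared folded-state K50, starting from K50 inferred by Bayesian fitting of sequencing counts. Digestion with trypsin and chymotrypsin was carried out on designed mini-proteins under 80 residues without cysteine in a PA-tagged cDNA display construct. Only designs with AlphaFold2 dimer inter-PAE above 15 were kept.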

Sequence | folding stability dG unfold
SAGGSKPTVTLELYIEVPEEELSEEEIKKLLEELAKELNLEVEVTVEVEEKDGKLIVKVTVTIKKPSAGGSA [r2_172_TrROS_Hall] | 2.25 ± 0.25 kcal/mol
SAGGSAGGSAGGGLASEPVEIVEILSVTLVPEANVEVVTVKLPNPGELVTVPASAVPPGLSAGGSAGGSAGG [r7_304_JUSTAS] | 1.69 ± 0.085 kcal/mol
SAGGSAGGSADPSVKPPVIKRLVIDIPLEELEKLFPGKLEKAVELAEEAVKLGFDEVVILGGSAGGSAGGSA [r18_441_TrMRF] | 0.793 ± 0.049 kcal/mol
SAGGSAMYEVRIKIKKDGKEVEIELSLEELEELLESPELREELEIVEIEVRPLPPEELSEEELKALSAGGSA [r15_460_TrROS_Hall] | 1.06 ± 0.058 kcal/mol
SAGGSAGGSAGGKPTITITVELEDGYKATFEYNEETDKITVKIFNKNGELVEEFEFEIKSAGGSAGGSAGGS [r10_1044_TrROS_Hall] | 2.87 ± 0.21 kcal/mol
SADKVEIEFPMPESGHPFRIVIDKDGKVEIRHPNNGEEYEFKINGKPIRFPPNMSWDDAIDQLKDALKKSAG [r14_561_TrROS] | 0.897 ± 0.19 kcal/mol
SMEVYTEETEEKSPTPLRRRTTTTTVVTRDGSRTVVTVETRVELEPVPPVPPRPLPPIYTPENREVNILLSA [r9_965_JUSTAS] | 1.38 ± 0.73 kcal/mol
SAGGSAGGSASIPELAEELGLPAEVEVTEDVEPEKPVVYPVVVREPGGGEVRVVPVVLPPGVSAGGSAGGSA [r18_313_JUSTAS] | 0.922 ± 0.16 kcal/mol
SAGGSAGGSAGGSVVPTTSYSPDGTLTLTTETVTPSSNGLTVTSSTTVRPLPTPASPAASAGGSAGGSAGGS [r10_1200_JUSTAS] | 1.04 ± 0.11 kcal/mol
SAGGSAGGSAGNIMILNKDGKIIAEIKIEEKYEIDKDGKIKKTKKIEIKIVPVPPGEKIKSAGGSAGGSAGG [r17_480_TrROS_Hall] | 1.25 ± 0.29 kcal/mol
SAGGSAGGSAGAEELAKALAEELNVEVEVEVVEVEEPEVEVTEERRLPPAPEEVTIEEDESAGGSAGGSAGG [r11_753_TrROS_Hall] | 0.939 ± 0.12 kcal/mol
SAGGMTFETETITLEFPPEDEEEIRKRAEEIAEKLKKEYEKKGYKVEVEFSYDPETGVLTITIKFEKKSAGG [r13_755_JUSTAS] | 3.99 ± 0.11 kcal/mol
SAGGSAGGSAGGKEYEVIEVEVNMTIEELKKLFPNVVEIKVEKNENGELKVTIIIKKDKSAGGSAGGSAGGS [r10_764_TrROS_Hall] | 2.31 ± 0.12 kcal/mol
SAGGSAGGSFRIDPEKIEKVKHHRNPNGGGYHTIRLPGGPVKIPFRGMDPGDMEDQVKNFLKNSAGGSAGGS [r12_585_TrROS] | 0.236 ± 0.14 kcal/mol
SAGGSAGGSMKTVEITIPFYSTTTDPVPSLGLLKTYLEEPEIKLKISPEEYKKLKKTPILKELSAGGSAGGS [r12_1015_JUSTAS] | 0.234 ± 0.27 kcal/mol
SAGGSAGGSAGMSVRVIEGDPALAKKFIEEHPDEIVSVEVTPHPETGTYTYVFVFKGPPKSAGGSAGGSAGG [r17_79_TrMRF] | 2.39 ± 0.091 kcal/mol

Sequence | folding stability dG unfold
SAGKKKTLTLTLGNVTITITYDEDTGTLRIKVTATVTTVTLDKDTKELTTEKKTVTTEIEIPLAPGATLSAG [r5_195_TrROS_Hall] | 2.67 ± 0.2 kcal/mol
SAGKKTLIIRVKIRVRRKVDGKEEEVELELVIEVEAEEDEEEARRKAEELARKLAEEYNLEIEEVEIFPSAG [r5_497_TrROS_Hall] | 4.26 ± 0.11 kcal/mol
SAGGSAGGSEKEIEIELPEGAEIVEIDEEKGVITVRVNGKLIEIEIKPVKVEKVEVELPPEEESAGGSAGGS [r12_243_TrROS_Hall] | 2.4 ± 0.17 kcal/mol
SAGGSAGMVSLTTTTTPVETRTLPDGTVVTLEKTELPDDTVVLTTTTTDPATGEVTTETTTVSLAGSAGGSA [r15_401_JUSTAS] | 0.884 ± 0.11 kcal/mol
SAGKEKKPPKKVTLTLEIEIEVPEEEEEKAKELAEELEEELRKLGIEKVEVEYDKETKRVRIRVTVVLPSAG [r5_512_TrROS_Hall] | 2.74 ± 0.36 kcal/mol
SAGTIRIVVPAEELSDEEIEALAEELRKLFPNAKIVRVERRVETLPDGRKRTYVVLEIHIELPPPPEEESAG [r5_835_TrROS_Hall] | 4.26 ± 0.14 kcal/mol
SAGGSAGGSAGGMVLVETEPLPDGGYRVLVVFPGTDEVRELYFSSSTTPEQVLDVVLAESAGGSAGGSAGGS [r10_825_TrMRF] | 2.34 ± 0.083 kcal/mol
PPLKIKMERYPNGMMKIDKIEVPNDGSIKLTLKFPNNGRKIERTIPPNAPPGQEKEIWFPFPNGFYRLKIES [r1_43_TrROS] | 0.32 ± 0.23 kcal/mol
SAGGSAGGSAGGDLLRDLPGLELRIETVTVTERYFDEDGELVEEREETVTRIELRRPGEESAGGSAGGSAGG [r7_614_TrROS_Hall] | 1.75 ± 0.2 kcal/mol
SAGGSAGGSAGGMEFELEDGGYVKVELELSEDGELVARVEFFNENGEPVAEIEVPLEEILSAGGSAGGSAGG [r7_660_TrMRF] | 1.76 ± 0.13 kcal/mol
SAGGSAGGMRYVTVTVTVPSNGKKYTYTKEIAPDEVFNISEAELAAEFGYPDVVVTVSESPIEDSAGGSAGG [r6_722_JUSTAS] | 3.08 ± 0.076 kcal/mol
SAGGSAKIKIITENGEELEIEVETKEELEKAVEALKKLLPPDAEIEVEVVEKDGKLIVKIKVKKKPSAGGSA [r15_80_TrROS_Hall] | 1.85 ± 0.31 kcal/mol
SAGVPLSSVPESEVAEEVEFPKHGLKLLRDTATGKWYLQEGDTATVIPPEEAAKLLAEIKAPKPSPELLSAG [r14_516_JUSTAS] | 1.2 ± 0.082 kcal/mol
SAEPPWYWIIKIEFPNGKPIVFMMDDPEEARERFEEKLRKEFPDGMKIESIPITPNDMDSPEEALERIKSAG [r14_900_TrROS] | 1.75 ± 0.48 kcal/mol
SAGGSSMTTKTINLSLPNGVEELTITITTPPDGTYNATFYFPKTGKKTTHNFTSEEEIEKFIEELIKESAGG [r13_857_JUSTAS] | 4.01 ± 0.089 kcal/mol

From the supplement of paper PMC12764529
